Source: article PMC7417364

Biological target: Paracoccidioides brasiliensis 1-Cys peroxiredoxin (PbPrx1), recombinant (Paracoccidioides brasiliensis (isolate Pb18))
Assay: SEC; analytical HPLC, Phenomenex BioSep-SEC-S3000 column, 50 uM protein in 100 mM Tris-HCl pH 7.4, run in 100 mM Tris-HCl pH 7.4 with 50 mM NaCl, 1.0 mL/min; samples treated beforehand with 5 mM TCEP (reduced) or 1.2 molar equivalents of H2O2 (oxidised) for 30 min at 25 C; dimeric in both redox states

stoichiometry N: 2
Substance: Paracoccidioides brasiliensis 1-Cys peroxiredoxin (PbPrx1), recombinant (enzyme)
